# Results reported in paper PMC6896899.
# Molecular target: megalin (human (endogenous in primary PTECs)) (UniProt P98164)
# Sequence of UniProt P98164 (P98164 26-4655): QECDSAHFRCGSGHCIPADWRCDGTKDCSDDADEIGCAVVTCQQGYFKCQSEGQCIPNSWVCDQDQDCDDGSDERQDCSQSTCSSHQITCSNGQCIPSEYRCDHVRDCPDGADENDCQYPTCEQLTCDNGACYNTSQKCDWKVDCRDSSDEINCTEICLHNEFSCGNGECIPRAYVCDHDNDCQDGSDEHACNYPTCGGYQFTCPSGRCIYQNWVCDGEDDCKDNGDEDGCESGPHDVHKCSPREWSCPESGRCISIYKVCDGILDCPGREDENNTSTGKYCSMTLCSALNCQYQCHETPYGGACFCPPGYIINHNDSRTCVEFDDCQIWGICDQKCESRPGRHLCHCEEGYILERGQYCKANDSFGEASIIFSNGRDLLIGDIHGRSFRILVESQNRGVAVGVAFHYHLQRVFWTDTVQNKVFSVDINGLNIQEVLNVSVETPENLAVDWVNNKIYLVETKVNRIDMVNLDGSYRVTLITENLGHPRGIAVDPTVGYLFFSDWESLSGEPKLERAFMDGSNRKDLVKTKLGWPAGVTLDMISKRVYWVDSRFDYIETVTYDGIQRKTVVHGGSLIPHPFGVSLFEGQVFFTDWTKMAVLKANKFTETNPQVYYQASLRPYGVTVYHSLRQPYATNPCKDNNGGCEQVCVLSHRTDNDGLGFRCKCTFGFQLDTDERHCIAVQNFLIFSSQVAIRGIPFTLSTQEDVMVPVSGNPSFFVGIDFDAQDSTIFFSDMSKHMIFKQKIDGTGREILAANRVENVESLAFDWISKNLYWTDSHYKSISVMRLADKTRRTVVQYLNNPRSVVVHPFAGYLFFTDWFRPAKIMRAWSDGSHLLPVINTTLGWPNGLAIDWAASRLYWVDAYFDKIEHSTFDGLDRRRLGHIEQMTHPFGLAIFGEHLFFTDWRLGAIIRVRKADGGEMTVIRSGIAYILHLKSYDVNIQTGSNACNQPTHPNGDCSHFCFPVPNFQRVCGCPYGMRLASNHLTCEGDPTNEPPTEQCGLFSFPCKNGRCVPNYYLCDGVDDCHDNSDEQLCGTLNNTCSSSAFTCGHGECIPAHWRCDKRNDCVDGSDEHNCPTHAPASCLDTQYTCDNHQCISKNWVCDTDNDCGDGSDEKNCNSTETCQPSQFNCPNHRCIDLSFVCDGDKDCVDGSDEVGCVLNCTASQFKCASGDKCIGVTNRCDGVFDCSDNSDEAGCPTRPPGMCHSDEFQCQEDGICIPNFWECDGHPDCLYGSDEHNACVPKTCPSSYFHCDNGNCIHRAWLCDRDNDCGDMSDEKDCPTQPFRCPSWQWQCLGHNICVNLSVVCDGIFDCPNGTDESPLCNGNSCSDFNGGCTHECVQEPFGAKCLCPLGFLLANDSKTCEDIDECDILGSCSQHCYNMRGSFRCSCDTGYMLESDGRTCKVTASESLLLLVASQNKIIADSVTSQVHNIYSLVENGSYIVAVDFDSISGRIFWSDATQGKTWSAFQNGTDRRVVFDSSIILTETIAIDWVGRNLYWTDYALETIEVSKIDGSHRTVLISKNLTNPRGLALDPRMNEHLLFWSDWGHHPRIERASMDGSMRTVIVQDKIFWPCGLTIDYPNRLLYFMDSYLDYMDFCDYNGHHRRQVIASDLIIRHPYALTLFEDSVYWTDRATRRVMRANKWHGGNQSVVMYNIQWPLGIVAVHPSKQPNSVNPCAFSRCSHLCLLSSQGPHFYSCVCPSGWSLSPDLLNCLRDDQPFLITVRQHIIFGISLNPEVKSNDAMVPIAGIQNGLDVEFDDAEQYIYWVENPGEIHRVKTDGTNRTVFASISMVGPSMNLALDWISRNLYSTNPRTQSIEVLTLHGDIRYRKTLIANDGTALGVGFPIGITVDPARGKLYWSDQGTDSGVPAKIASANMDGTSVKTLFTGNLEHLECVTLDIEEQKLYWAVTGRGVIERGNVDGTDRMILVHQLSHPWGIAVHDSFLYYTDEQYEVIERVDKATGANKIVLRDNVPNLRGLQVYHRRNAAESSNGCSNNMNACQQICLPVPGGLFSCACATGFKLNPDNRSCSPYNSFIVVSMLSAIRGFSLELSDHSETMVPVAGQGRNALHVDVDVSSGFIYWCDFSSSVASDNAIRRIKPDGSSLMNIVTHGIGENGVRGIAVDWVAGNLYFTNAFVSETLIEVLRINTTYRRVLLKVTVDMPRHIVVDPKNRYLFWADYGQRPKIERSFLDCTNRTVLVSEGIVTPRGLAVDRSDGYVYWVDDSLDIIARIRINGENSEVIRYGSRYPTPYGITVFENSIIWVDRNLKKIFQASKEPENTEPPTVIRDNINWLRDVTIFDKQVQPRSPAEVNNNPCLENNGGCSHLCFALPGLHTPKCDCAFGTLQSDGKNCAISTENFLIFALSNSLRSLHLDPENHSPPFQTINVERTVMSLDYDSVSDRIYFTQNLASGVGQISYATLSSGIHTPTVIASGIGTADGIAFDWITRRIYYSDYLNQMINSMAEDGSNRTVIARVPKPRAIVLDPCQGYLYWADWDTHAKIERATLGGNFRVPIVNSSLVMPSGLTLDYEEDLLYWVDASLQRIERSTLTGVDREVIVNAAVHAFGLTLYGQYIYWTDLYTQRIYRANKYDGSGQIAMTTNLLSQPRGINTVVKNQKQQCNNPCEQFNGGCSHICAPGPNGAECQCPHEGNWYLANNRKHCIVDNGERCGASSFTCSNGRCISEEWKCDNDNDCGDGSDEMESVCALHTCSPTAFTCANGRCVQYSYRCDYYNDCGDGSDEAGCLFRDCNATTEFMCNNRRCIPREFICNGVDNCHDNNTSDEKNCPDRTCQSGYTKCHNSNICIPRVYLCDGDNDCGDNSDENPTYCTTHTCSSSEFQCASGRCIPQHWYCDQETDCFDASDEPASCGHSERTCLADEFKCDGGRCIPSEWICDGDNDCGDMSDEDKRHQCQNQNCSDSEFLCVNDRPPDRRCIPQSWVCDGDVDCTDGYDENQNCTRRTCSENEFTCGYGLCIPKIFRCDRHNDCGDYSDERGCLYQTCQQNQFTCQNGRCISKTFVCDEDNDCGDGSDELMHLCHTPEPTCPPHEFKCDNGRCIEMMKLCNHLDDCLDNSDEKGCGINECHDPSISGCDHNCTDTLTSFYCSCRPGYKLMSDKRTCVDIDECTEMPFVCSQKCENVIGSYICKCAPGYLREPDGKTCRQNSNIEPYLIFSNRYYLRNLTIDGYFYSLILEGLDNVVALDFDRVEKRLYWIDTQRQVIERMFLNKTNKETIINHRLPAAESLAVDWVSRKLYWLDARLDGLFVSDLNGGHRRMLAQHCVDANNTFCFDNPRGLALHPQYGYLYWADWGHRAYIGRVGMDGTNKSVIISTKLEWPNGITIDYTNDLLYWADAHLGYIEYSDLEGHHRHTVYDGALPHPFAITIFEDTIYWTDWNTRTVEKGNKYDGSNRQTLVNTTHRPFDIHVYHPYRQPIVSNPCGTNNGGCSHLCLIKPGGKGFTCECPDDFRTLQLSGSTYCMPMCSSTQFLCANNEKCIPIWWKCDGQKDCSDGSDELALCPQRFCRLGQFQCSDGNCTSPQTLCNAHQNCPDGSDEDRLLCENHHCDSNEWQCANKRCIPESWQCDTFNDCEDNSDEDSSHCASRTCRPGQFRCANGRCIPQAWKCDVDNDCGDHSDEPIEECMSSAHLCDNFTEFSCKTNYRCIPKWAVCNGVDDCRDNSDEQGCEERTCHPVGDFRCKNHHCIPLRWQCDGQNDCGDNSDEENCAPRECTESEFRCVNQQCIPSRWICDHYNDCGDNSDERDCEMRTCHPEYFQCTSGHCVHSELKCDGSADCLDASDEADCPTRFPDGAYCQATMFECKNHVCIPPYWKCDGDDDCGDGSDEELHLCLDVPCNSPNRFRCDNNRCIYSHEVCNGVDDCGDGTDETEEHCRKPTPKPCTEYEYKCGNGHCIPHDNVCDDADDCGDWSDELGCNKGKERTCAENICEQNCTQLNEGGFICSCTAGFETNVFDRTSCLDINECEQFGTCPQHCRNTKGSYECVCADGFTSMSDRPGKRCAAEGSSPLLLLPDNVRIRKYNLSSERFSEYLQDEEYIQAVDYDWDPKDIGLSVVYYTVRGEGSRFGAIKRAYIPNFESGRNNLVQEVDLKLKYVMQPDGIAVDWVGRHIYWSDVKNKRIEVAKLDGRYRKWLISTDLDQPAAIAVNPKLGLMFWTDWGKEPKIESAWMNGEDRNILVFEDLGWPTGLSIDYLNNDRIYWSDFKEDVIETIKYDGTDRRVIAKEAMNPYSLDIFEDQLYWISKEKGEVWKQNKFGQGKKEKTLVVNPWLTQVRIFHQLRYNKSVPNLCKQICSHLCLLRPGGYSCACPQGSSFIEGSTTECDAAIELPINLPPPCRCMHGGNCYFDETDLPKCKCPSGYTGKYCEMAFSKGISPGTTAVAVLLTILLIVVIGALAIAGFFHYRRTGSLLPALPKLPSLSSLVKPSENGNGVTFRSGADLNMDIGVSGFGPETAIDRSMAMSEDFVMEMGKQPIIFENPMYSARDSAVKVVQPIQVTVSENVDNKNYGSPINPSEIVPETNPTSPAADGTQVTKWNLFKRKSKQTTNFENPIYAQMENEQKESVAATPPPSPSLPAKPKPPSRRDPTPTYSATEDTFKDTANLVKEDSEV
substance,measurement,value
Mixed type human vitamin D binding protein (from UniProt P02774 17-474) (natural protein),"intrinsic clearance of 25OHD3 loss (CLint,25OHD3) from the perfusion medium of the PT-MPS with 3 uM DBP; fold-change with 1 uM RAP (megalin inhibitor) against no RAP, geometric mean of 5 donors (fold reduction)",2.4
